Source: patent publication US20110076265A1 (POMONA RICERCA S R L, published 2011)

Target: T1, HA protein (H1-subtype hemagglutinin) of influenza A virus A/California/04/2009 (influenza A virus A/California/04/2009 …, UniProt P26140 18-566)
T1 construct: also called H1 HA (A/California/04/2009)
Test: FACS on fixed HEK 293T cells transfected with HA construct, Fab49 at 10 µg/ml

B1: Fab49 (human monoclonal Fab fragment produced by bacterial clone INF49) (Fab, V domains shown)
VH: LESGGGLVQPGGSLRLSCAASGITFSSYAMSWVRQAPGKGLEWVSTVNSGGGSTYYGDSVRGRFTISRDNSKSTLYLQLNSLRAEDTAIYYCAKDKGRPIFGLVTPSYYMDVWGNGT
VL: ELTQSPSSLSASVGDSVTITCRTSERISTYLNWYQQKPGKAPRLLVSGASTLQGGVPSRFSGSGSGTAFTLTINSLQPEDFATYYCQQSYSTPLTFGGGT
B1: binds.
